Assay results from US20250122292A1 (DOMA BIOPHARMACEUTICAL SUZHOU, published 2025).

What was measured:
Assay in all cases: SPR (Biacore 8K, Protein A chip; His-tagged antigen as analyte; 1:1 Langmuir fit)
[1] = biological target: T1, hMET-His (ACROBiosystems Inc., Cat #: MET-H5227) (human, UniProt P08581 25-932)
T1 construct: Bought reagent; also called human MET; not shown: His tag
Text: (§1) Dissociation was monitored for 400 seconds.

[2] = biological target: fasEGFR-His (ACROBiosystems Inc., Cat #: EGR-C52H5) (monkey)
Text: as §1

[3] = biological target: T2, hEGFR-His (ACROBiosystems Inc., Cat #: EGR-H5222) (human, UniProt P00533 25-645)
T2 construct: Bought reagent; also called human EGFR; not shown: His tag
Text: as §1

T1 sequence (P08581 25-932 limits assumed): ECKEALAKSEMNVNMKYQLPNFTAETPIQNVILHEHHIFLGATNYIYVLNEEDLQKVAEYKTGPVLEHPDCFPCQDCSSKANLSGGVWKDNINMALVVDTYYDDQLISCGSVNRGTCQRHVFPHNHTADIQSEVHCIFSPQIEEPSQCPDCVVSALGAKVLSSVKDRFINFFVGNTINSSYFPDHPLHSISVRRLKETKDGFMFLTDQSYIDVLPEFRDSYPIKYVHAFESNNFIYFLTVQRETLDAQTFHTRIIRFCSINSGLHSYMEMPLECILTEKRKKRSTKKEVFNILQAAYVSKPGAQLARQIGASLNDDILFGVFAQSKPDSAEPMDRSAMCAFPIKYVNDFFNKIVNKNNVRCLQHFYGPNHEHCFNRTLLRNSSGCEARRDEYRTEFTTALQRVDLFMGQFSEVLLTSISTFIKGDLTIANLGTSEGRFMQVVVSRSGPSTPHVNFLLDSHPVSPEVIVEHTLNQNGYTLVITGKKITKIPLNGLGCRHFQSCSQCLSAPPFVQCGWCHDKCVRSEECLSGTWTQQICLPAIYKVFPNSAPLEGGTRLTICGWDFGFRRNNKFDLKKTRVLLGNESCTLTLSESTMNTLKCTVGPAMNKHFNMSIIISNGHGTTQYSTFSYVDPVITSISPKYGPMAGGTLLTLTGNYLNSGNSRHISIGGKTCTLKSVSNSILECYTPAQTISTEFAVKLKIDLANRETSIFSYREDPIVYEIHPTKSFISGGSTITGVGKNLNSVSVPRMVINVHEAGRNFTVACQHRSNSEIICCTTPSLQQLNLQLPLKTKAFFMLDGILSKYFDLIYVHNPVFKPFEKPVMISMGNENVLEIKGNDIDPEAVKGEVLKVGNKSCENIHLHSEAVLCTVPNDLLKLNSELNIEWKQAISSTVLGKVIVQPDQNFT

Row | Binder | Kd [1] | koff [1] | kon [1] | Kd [2] | koff [2] | kon [2] | Kd [3] | koff [3] | kon [3]
1 | E-6C4-M-2F11 (bispecific antibody, human IgG1, kappa, 1+1 knobs-into-holes bispecific with common light chain; also called anti-EGFR/MET bispecific antibody E-6C4-M-2F11) heavy 1: not shown heavy 2: EVQLVESGPGLVKPSETLSLTCTVSGGSISSNYWSWIRQPPGKGLEWIGYIYHSGSTNYNPSLKSRVTISVDTSKNQFSLKLSSVTAADTAVYFCARGPVSIFGVVKYIDLWGRGTLVTVSSASTKGPSVFPLAPSSKSTSGGTAALGCLVKDYFPEPVTVSWNSGALTSGVHTFPAVLQSSGLYSLSSVVTVPSSSLGTQTYICNVNHKPSNTKVDKKVEPKSCDKTHTCPPCPAPELLGGPSVFLFPPKPKDTLMISRTPEVTCVVVDVSHEDPEVKFNWYVDGVEVHNAKTKPREEQYNSTYRVVSVLTVLHQDWLNGKEYKCKVSNKALPAPIEKTISKAKGQPREPQVCTLPPSREEMTKNQVSLSCAVKGFYPSDIAVEWESNGQPENNYKTTPPVLDSDGSFFLVSKLTVDKSRWQQGNVFSCSVMHEALHNHYTQKSLSLSPGK light: not shown | 50.5 nM | 0.00187 s⁻¹ | 37000 M⁻¹ s⁻¹ | 115 nM | 0.0198 s⁻¹ | 172000 M⁻¹ s⁻¹ | 70.7 nM | 0.0215 s⁻¹ | 304000 M⁻¹ s⁻¹
2 | E-6C4 (antibody, V domains shown, Anti-EGFR human monoclonal antibody from RenLite mice with the common light chain) VH: QVQLQQWGPGLVKPSQTLSLTCTVSGGSINSGDYYWSWIRQPPGKGLESIGYIYYSGSTYYNPSLKSRVTISADTSKNQFSLKLTSVTAADTAVYYCARERVYSSSLDYWGQGTLVTVSS VL: not shown |  |  |  | 158 nM |  |  |  |  | 
